B1: Regulator of cell cycle RGCC (Homo sapiens), Q9H4X1-2 (parent)
chain: MKPPAEDLSDALCEFDAVLADFASPFHERHFHYEEHLERMKRRSSASVSDSSGFSDSESADSLYRNSFSFSDEKLNSPTDSTPALLSATVTPQKAKLGDTKELEAFIADLDKTLASM

Variants of: B1
Settings: with akt1_human AKT1, P31749
Chain of akt1_human AKT1, P31749 (P31749 whole entry): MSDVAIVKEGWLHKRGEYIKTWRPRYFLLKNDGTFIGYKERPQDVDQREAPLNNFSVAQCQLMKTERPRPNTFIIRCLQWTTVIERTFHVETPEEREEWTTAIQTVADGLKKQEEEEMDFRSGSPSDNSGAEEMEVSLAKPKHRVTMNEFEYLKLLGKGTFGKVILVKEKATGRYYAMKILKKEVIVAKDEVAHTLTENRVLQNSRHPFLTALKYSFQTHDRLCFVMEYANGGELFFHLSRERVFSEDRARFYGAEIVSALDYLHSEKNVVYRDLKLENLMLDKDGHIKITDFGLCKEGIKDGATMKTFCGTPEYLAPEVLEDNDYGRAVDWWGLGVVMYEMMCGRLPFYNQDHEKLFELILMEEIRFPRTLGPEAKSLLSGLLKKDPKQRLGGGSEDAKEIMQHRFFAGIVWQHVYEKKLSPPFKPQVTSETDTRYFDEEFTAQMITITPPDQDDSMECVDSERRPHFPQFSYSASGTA

Row | effect of a mutation on the interaction | Variant
1 | disrupting interaction | S45A;S47A
